± gives the standard deviation of the averaged measurements.
These sequences were tested on ATP (assay: switch fluorescence ratio, 500 uM ATP over buffer (Cy3 cluster intensity, sum of 5 cycles each) (fold (ratio)); higher = stronger signal-on switching upon ATP binding; sequences stand for … in TCGTCGGCAGCGTCAGATGTGTATAAGAGACAGTTTTTTTTTTTTTTTTTTTTTTTTT…TC). Conditions: aptamer strand: ATP DNA aptamer (quencher-CACCTGGGGGAGTATTGCGGAGGAAGG + anchor), 100 nM annealed; ATP concentration: 500 uM.
Method in brief: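 Five buffer/ATP imaging cycles were run on Cy3-labelled switching-strand clusters on a modified Illumina MiSeq flow-cell, with NaOH stripping and re-annealing between cycles. In each cycle, clusters annealed to 100 nM quencher-labelled ATP aptamer were imaged in selection buffer, then after 15 min with 500 uM ATP at 22 °C. Per cluster, the fluorescence ratio is summed target-cycle over summed buffer-cycle Cy3 intensity, averaged per switch-domain sequence. Only clusters within 100-1000 RFU were kept.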
Work on TTTTTAGAAG yielded a switch fluorescence ratio of 0.985 ± 0.01. ATTTAGTGAC was tested, and the switch fluorescence ratio was 1.02 ± 0.051. Work on TGGGGGGTGG yielded a switch fluorescence ratio of 1 ± 0.041. TTTGGGGGGT showed a switch fluorescence ratio of 0.985 ± 0.02. CTATAACGGG was tested, and the switch fluorescence ratio was 0.981 ± 0.0067. In the case of CATAAGCCTC, the switch fluorescence ratio is reported as 1.03 ± 0.056. Sequence TTTTAGAGTA has a switch fluorescence ratio of 1.003 ± 0.009. Sequence AAAACTCCGA has a switch fluorescence ratio of 1.07 ± 0.097. Sequence TATAGTTTTG has a switch fluorescence ratio of 0.996 ± 0.021. Work on ATAATCCTTG yielded a switch fluorescence ratio of 1.01 ± 0.005. Work on AGTAGCAAGC yielded a switch fluorescence ratio of 3.3 ± 0.17. TTAAAATGCT was tested, and the switch fluorescence ratio was 0.978 ± 0.011. GGGTCTAGGT was tested, and the switch fluorescence ratio was 0.997 ± 0.03. GGGGCTTGCG showed a switch fluorescence ratio of 0.948 ± 0.045. GTTCCGGGTT gave a switch fluorescence ratio of 0.983 ± 0.075. For GTTTGGCCAT, the switch fluorescence ratio was 1.02 ± 0.02. Work on TTAGGGTGTA yielded a switch fluorescence ratio of 1.01 ± 0.046. For GAAAAAAGGA, the switch fluorescence ratio was 0.981 ± 0.028. With AGAATGTGG the switch fluorescence ratio was 1.21 ± 0.28. GAGTTATGG showed a switch fluorescence ratio of 0.995 ± 0.043. In the case of AGCACGCTTT, the switch fluorescence ratio is reported as 1.019 ± 0.0063. Work on CACTCATTTT yielded a switch fluorescence ratio of 0.98 ± 0.033. TTGGGCTGGG was tested, and the switch fluorescence ratio was 1.01 ± 0.026. For AAAGCTCGCT, the switch fluorescence ratio was 0.973 ± 0.015. With GTGGATCAAA the switch fluorescence ratio was 1.02 ± 0.049. In the case of TGTGGGGGGT, the switch fluorescence ratio is reported as 0.992 ± 0.027. Sequence ATCGCGGGCA has a switch fluorescence ratio of 1.02 ± 0.027. With GCAGGAGCCT the switch fluorescence ratio was 1.01 ± 0.011. Sequence GAGGACGGTG has a switch fluorescence ratio of 1.03 ± 0.015. In the case of GAAGCACGCC, the switch fluorescence ratio is reported as 1.45 ± 0.0069. In the case of GTTCTTGTAT, the switch fluorescence ratio is reported as 0.988 ± 0.029. TTTGAGGCCA was tested, and the switch fluorescence ratio was 1.04 ± 0.061. Work on GGGGCCGAAT yielded a switch fluorescence ratio of 1.01 ± 0.021. In the case of TGTTAGTCTT, the switch fluorescence ratio is reported as 0.969 ± 0.057. CAATTGTGGG gave a switch fluorescence ratio of 0.996 ± 0.026. TTGTGGGTAG showed a switch fluorescence ratio of 1.02 ± 0.043. For GAACAGTCCG, the switch fluorescence ratio was 1.051 ± 0.0039. TTAAAATTTT showed a switch fluorescence ratio of 1.06 ± 0.06. For TTTTTTGGAT, the switch fluorescence ratio was 1.01 ± 0.022. GCGTGATGCC gave a switch fluorescence ratio of 1.03 ± 0.075. TGGTTCAAGT was tested, and the switch fluorescence ratio was 0.984 ± 0.011. TTTGGGGTCG showed a switch fluorescence ratio of 0.992 ± 0.034. TTGAAATTAA was tested, and the switch fluorescence ratio was 1.01 ± 0.025. Work on TTGAGGGGGA yielded a switch fluorescence ratio of 1.01 ± 0.014. Sequence CACGGGCTTC has a switch fluorescence ratio of 1.016 ± 0.0084. ATAGGATAGT gave a switch fluorescence ratio of 0.976 ± 0.015. For TTTTTCCATT, the switch fluorescence ratio was 1.01 ± 0.027. CGCTTAGGGT gave a switch fluorescence ratio of 1.05 ± 0.07. CTAGATTTGA gave a switch fluorescence ratio of 1 ± 0.024. ATACGGTAGG was tested, and the switch fluorescence ratio was 1.006 ± 0.01. Sequence CTATGTGATT has a switch fluorescence ratio of 1.025 ± 0.0017. AGTGTTGTCA gave a switch fluorescence ratio of 0.97 ± 0.043. Sequence TAGAAGCCTG has a switch fluorescence ratio of 1.03 ± 0.053. Work on GTTAGCGGTT yielded a switch fluorescence ratio of 0.9884 ± 0.0034. Sequence GTGAAGGGGT has a switch fluorescence ratio of 1 ± 0.047. With ATGTGGCGTC the switch fluorescence ratio was 1.01 ± 0.019. Sequence TTTTGCGTCT has a switch fluorescence ratio of 1.06 ± 0.071. Sequence TTATATTGAT has a switch fluorescence ratio of 1.017 ± 0.0029. AAGAATGGCC was tested, and the switch fluorescence ratio was 0.954 ± 0.0032. With GAGGCAAGTG the switch fluorescence ratio was 1.12 ± 0.055. ATCTAACCGA was tested, and the switch fluorescence ratio was 1.06 ± 0.026. Work on TGGAGCCTTT yielded a switch fluorescence ratio of 1.1 ± 0.18. AGGTAGTTC gave a switch fluorescence ratio of 0.96 ± 0.1. TGGGAGGTTA gave a switch fluorescence ratio of 0.965 ± 0.025. AGTTTAGTGA showed a switch fluorescence ratio of 0.996 ± 0.044. Sequence GGGGTTTTAC has a switch fluorescence ratio of 0.995 ± 0.036. Work on TAGTGAGTCC yielded a switch fluorescence ratio of 1.08 ± 0.1. Sequence GTGGGCGGGA has a switch fluorescence ratio of 1.07 ± 0.14. For CTGAGGCACG, the switch fluorescence ratio was 1.09 ± 0.068. GATCTTGGGT was tested, and the switch fluorescence ratio was 1.11 ± 0.19. Sequence GAGCTGTAAC has a switch fluorescence ratio of 1.02 ± 0.053. With CTGTTTGCAG the switch fluorescence ratio was 0.987 ± 0.056. GCACGTATTC was tested, and the switch fluorescence ratio was 1.113 ± 0.0047. With GAGTTAGGGG the switch fluorescence ratio was 0.998 ± 0.018. In the case of AGATAACCCA, the switch fluorescence ratio is reported as 1 ± 0.052. TTGAAAGTG gave a switch fluorescence ratio of 0.9785 ± 0.0043. AGGAGGGTAG showed a switch fluorescence ratio of 1 ± 0.021. GTAAGAGTTC showed a switch fluorescence ratio of 1.02 ± 0.051. CATTTCCTGA showed a switch fluorescence ratio of 1.02 ± 0.038. Sequence ATTGGGCAGG has a switch fluorescence ratio of 1.04 ± 0.017. For GGGGTACGGT, the switch fluorescence ratio was 1 ± 0.018. With ACTTCGTTCT the switch fluorescence ratio was 1.03 ± 0.034. In the case of GGGTCGGTTT, the switch fluorescence ratio is reported as 1.01 ± 0.019. In the case of TTTTTCCAT, the switch fluorescence ratio is reported as 1 ± 0.02. TGATATTTGT gave a switch fluorescence ratio of 1.01 ± 0.027. With TTAAGATGGT the switch fluorescence ratio was 0.983 ± 0.029. Sequence TGTTTTGCGT has a switch fluorescence ratio of 1.01 ± 0.037. TACTACGTGC was tested, and the switch fluorescence ratio was 1.28 ± 0.019. In the case of TGGGGTACGT, the switch fluorescence ratio is reported as 1.02 ± 0.013. Work on GAAAAAGGCG yielded a switch fluorescence ratio of 1.01 ± 0.043. For TTAGGGGAGC, the switch fluorescence ratio was 0.976 ± 0.021. For AACTTTTTGG, the switch fluorescence ratio was 0.99 ± 0.013. GAAGGTCCAC was tested, and the switch fluorescence ratio was 1.017 ± 0.0078. For AATTGGTTCG, the switch fluorescence ratio was 0.984 ± 0.012. For GAGTGGTTGC, the switch fluorescence ratio was 1.05 ± 0.12. GCTGTCAGCG showed a switch fluorescence ratio of 1.02 ± 0.024. Sequence GTATGAATTA has a switch fluorescence ratio of 0.985 ± 0.033. GTGTGCACGC showed a switch fluorescence ratio of 1.05 ± 0.065. TCACTATACA was tested, and the switch fluorescence ratio was 1.315 ± 0.0077. GCGGGCAGGC was tested, and the switch fluorescence ratio was 0.99818 ± 0.00079. TTAACGGGGT was tested, and the switch fluorescence ratio was 1.04 ± 0.073. TAGGTGAAGG was tested, and the switch fluorescence ratio was 1 ± 0.0069. In the case of AGCTCTGCTA, the switch fluorescence ratio is reported as 1.02 ± 0.02. Work on AGCAGGAGGG yielded a switch fluorescence ratio of 1.022 ± 0.0081. In the case of CGTAGTGGCT, the switch fluorescence ratio is reported as 1.04 ± 0.04. For AGGCGAGGAT, the switch fluorescence ratio was 1.012 ± 0.0075. Sequence TGCTCTAGGA has a switch fluorescence ratio of 1.001 ± 0.0042. For TTGGGAGTTA, the switch fluorescence ratio was 0.99379 ± 0.00026. With AGGAAAAAAA the switch fluorescence ratio was 2.85 ± 2.6. For CTTGGGATTA, the switch fluorescence ratio was 1.03 ± 0.016. With CAATGCATGC the switch fluorescence ratio was 1.14 ± 0.082. For ATAGCTTGGC, the switch fluorescence ratio was 1.011 ± 0.0047. Work on TTGTTGGAGT yielded a switch fluorescence ratio of 0.985 ± 0.018. ACGGGGGTAG gave a switch fluorescence ratio of 0.989 ± 0.022. ACGGGGGGCG was tested, and the switch fluorescence ratio was 0.984 ± 0.052. With TTCGTTGTAA the switch fluorescence ratio was 0.98683 ± 0.00096. Work on TTTAAATTTT yielded a switch fluorescence ratio of 1 ± 0.03. In the case of GTTATTGGGG, the switch fluorescence ratio is reported as 1.01 ± 0.024. Work on ATGGGCATGG yielded a switch fluorescence ratio of 1.04 ± 0.072. Work on AGGGAAGGAT yielded a switch fluorescence ratio of 1.01 ± 0.047. In the case of TGCAAGGGGT, the switch fluorescence ratio is reported as 1.14 ± 0.16. With AAGTCGACAC the switch fluorescence ratio was 1.02 ± 0.032. CCTGTAGGTA gave a switch fluorescence ratio of 1.009 ± 0.0069. For ACATGAGGGA, the switch fluorescence ratio was 1.02 ± 0.067. With CGTAAAAGGC the switch fluorescence ratio was 0.994 ± 0.027. Work on GGTTATAGTC yielded a switch fluorescence ratio of 0.966 ± 0.02. For CGGTTGCTTG, the switch fluorescence ratio was 0.996 ± 0.034. TTTTAGATGG was tested, and the switch fluorescence ratio was 1.2 ± 0.2. For TAGGGACTAG, the switch fluorescence ratio was 1.02 ± 0.015. Work on TCAGAGGCTT yielded a switch fluorescence ratio of 0.996 ± 0.04. In the case of GGGTCAGCTG, the switch fluorescence ratio is reported as 0.986 ± 0.036. CAGGTTTAAA gave a switch fluorescence ratio of 0.992 ± 0.034. With GTGATACGGG the switch fluorescence ratio was 1.04 ± 0.021. Sequence CAAGCGGATT has a switch fluorescence ratio of 1 ± 0.033. Sequence TTTGGATTTA has a switch fluorescence ratio of 1.03 ± 0.057. ATGATCTCGT showed a switch fluorescence ratio of 0.968 ± 0.032. Work on ACGTATAGAG yielded a switch fluorescence ratio of 0.991 ± 0.042. TAAATTGATG was tested, and the switch fluorescence ratio was 1.036 ± 0.0049. For AGGAATGTTA, the switch fluorescence ratio was 1.03 ± 0.018. GAGGGTTCGG was tested, and the switch fluorescence ratio was 0.972 ± 0.031. For CTATGTATGT, the switch fluorescence ratio was 1.01 ± 0.022. For AAAGGTCAT, the switch fluorescence ratio was 0.9933 ± 0.0018. TCAAGTTTTT gave a switch fluorescence ratio of 1.012 ± 0.0044. ATTGGTTAGG gave a switch fluorescence ratio of 1.01 ± 0.028. TTAGTCAGGG gave a switch fluorescence ratio of 1.02 ± 0.024. TTGTTTAATA showed a switch fluorescence ratio of 1.02 ± 0.019. Work on CGCCGACGGC yielded a switch fluorescence ratio of 1.01 ± 0.018. In the case of TGTATGAACT, the switch fluorescence ratio is reported as 0.98027 ± 3.7e-05. For GATATTAGGA, the switch fluorescence ratio was 1 ± 0.088. With AGTAGAGTTT the switch fluorescence ratio was 0.987 ± 0.013. With AAAAAATAG the switch fluorescence ratio was 0.985 ± 0.013. Sequence CTGGACCGGC has a switch fluorescence ratio of 0.967 ± 0.014. Sequence ATTTTCTTGC has a switch fluorescence ratio of 1 ± 0.038. With AGTAAGAGTC the switch fluorescence ratio was 1.01 ± 0.017. AGGAAGCAGT showed a switch fluorescence ratio of 1.018 ± 0.0085. In the case of GAGGGGTCAG, the switch fluorescence ratio is reported as 1 ± 0.039. With TTTACGTGCA the switch fluorescence ratio was 1.04 ± 0.073.
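Note: ATP exposure 15 min at 22 °C before imaging.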
